This data set in a line: self-splicing fitness, log relative to wild type (ln ratio); higher = more splicing; Tetrahymena group I intron in knt gene, E. coli kanamycin selection, DiMSum; sequences stand for … in CUCUCU…GGAGGGAAAAGUUAUCAGGCAUGCACCUGGUAGCUAGUCUUUAAACCAAUAGAUUGCAUCGGUUUAAAAGGCAAGACCGUCAAAUUGCGGGAAAGGGGUCAACAGCCGUUCAGUACCAAGUCUCAGGGGAAACUUUGAGAUGGCCUUGCAAAGGGUAUGGUAAUAAGCUGACGGACAUGGUCCUAACCACGCAGCCAAGUCCUAAGUCAACAGAUCUUCUGUUGAUAUGGAUGCAGUUCACAGACUAAAUGUCGGUCGGGGAAGAUGUAUUCUUCUCAUAAGAUAUAGUCGGACCUCUCCUUAAUGGGAGCUAGCGGAUGAAGUGAUGCAACACUGGAGCCGCUGGGAACUAAUUUGUAUGCGAAAGUAUAUUGAUUAGUUUUGGAGUACUCGUGGUCG
An outline of the steps: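 DiMSum derived fitness as the error-weighted combination of fold changes across replicates, kanamycin versus no kanamycin, normalised to wild type. E. coli BL21(DE3) held the library, which randomised all eight P1ex-region intron nucleotides within the knt kanamycin-resistance gene on pET-22b(+). Six replicate transformations grew overnight at 37°C or 30°C on LB agar with or without 25 μg/mL kanamycin, also containing 100 μg/mL carbenicillin, 50 μM IPTG and 0.2% rhamnose, and pooled colonies were amplicon-sequenced on an Illumina HiSeq 2500.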

We go through 37 sequences from the supplement of paper PMC7877785.

± gives the uncertainty stated by the source.

With CCACAGCAAUAUUACGCUCG, the “self-splicing fitness (ln)” value was -1.34 ± 0.077 (30 °C) and -0.135 ± 0.088 (37 °C).

In the case of CCACAGCAAUAUUACGCUGG, the “self-splicing fitness (ln)” value is -4.04 ± 0.22 (30 °C) and -2.58 ± 0.2 (37 °C).

Turning to CCACAGCAAUAUUACGGUAU, the “self-splicing fitness (ln)” value by setting is: (30 °C) -3.97 ± 0.19; (37 °C) -2.6 ± 0.16.

Consider CCACAGCAAUAUUACGGUCA, for which the “self-splicing fitness (ln)” value runs as follows: (30 °C) -3.27 ± 0.21; (37 °C) -3.22 ± 0.34.

Take CCACAGCAAUAUUACGGUUC: the “self-splicing fitness (ln)” value reads like this: (30 °C) -3.39 ± 0.18; (37 °C) -2.27 ± 0.19.

Consider CCACAGCAAUAUUACGGUUU, for which the “self-splicing fitness (ln)” value is, setting by setting: (30 °C) -4.31 ± 0.19; (37 °C) -2.8 ± 0.16.

Turning to CCACAGCAAUAUUACGUAAU, the “self-splicing fitness (ln)” value reads like this: (30 °C) -3.17 ± 0.13; (37 °C) -2.41 ± 0.2.

Take CCACAGCAAUAUUACGUACA: the “self-splicing fitness (ln)” value (30 °C) was -2.84 ± 0.19 and the “self-splicing fitness (ln)” value (37 °C) is -2.96 ± 0.34.

Take CCACAGCAAUAUUACGUAUG: the “self-splicing fitness (ln)” value was -0.654 ± 0.047 (30 °C) and -0.391 ± 0.065 (37 °C).

In the case of CCACAGCAAUAUUACGUCCG, the “self-splicing fitness (ln)” value is, setting by setting: (30 °C) -0.456 ± 0.053; (37 °C) 0.344 ± 0.068.

In the case of CCACAGCAAUAUUACGUCGU, the “self-splicing fitness (ln)” value (30 °C) was -4.38 ± 0.17 and the “self-splicing fitness (ln)” value (37 °C) was -3.14 ± 0.17.

Regarding CCACAGCAAUAUUACGUGUC, the “self-splicing fitness (ln)” value is -3.11 ± 0.15 (30 °C) and -2.68 ± 0.16 (37 °C).

As to CCACAGCAAUAUUACGUUAA, the “self-splicing fitness (ln)” value was -3.12 ± 0.14 (30 °C) and -2.48 ± 0.14 (37 °C).

In the case of CCACAGCAAUAUUACGUUGA, the “self-splicing fitness (ln)” value is -3.67 ± 0.17 (30 °C) and -3.31 ± 0.18 (37 °C).

In the case of CCAGAGCAAUAUUACGAAGC, the “self-splicing fitness (ln)” value runs as follows: (30 °C) -3.1 ± 0.24; (37 °C) -2.71 ± 0.27.

On to CCAGAGCAAUAUUACGAAUA, for which the “self-splicing fitness (ln)” value was -2.84 ± 0.23 (30 °C) and -3.27 ± 0.42 (37 °C).

Turning to CCAGAGCAAUAUUACGAAUG, the “self-splicing fitness (ln)” value (30 °C) is -1.73 ± 0.097 and the “self-splicing fitness (ln)” value (37 °C) is -0.868 ± 0.12.

Regarding CCAGAGCAAUAUUACGAGAC, the “self-splicing fitness (ln)” value is, setting by setting: (30 °C) -4.31 ± 0.46; (37 °C) -2.66 ± 0.3.

Regarding CCAGAGCAAUAUUACGAGGU, the “self-splicing fitness (ln)” value is -3.71 ± 0.24 (30 °C) and -2.77 ± 0.29 (37 °C).

As to CCAGAGCAAUAUUACGAUCC, the “self-splicing fitness (ln)” value (37 °C) is -1.91 ± 0.38.

Turning to CCAGAGCAAUAUUACGAUUA, the “self-splicing fitness (ln)” value (30 °C) was -3.29 ± 0.3.

In the case of CCAGAGCAAUAUUACGCCGA, the “self-splicing fitness (ln)” value was -2.35 ± 0.28 (30 °C) and -2.65 ± 0.44 (37 °C).

In the case of CCAGAGCAAUAUUACGCCUU, the “self-splicing fitness (ln)” value is -3.57 ± 0.25 (30 °C) and -2.37 ± 0.25 (37 °C).

For CCAGAGCAAUAUUACGCGAG, the “self-splicing fitness (ln)” value (30 °C) was -2.77 ± 0.17 and the “self-splicing fitness (ln)” value (37 °C) is -2.36 ± 0.25.

Consider CCAGAGCAAUAUUACGCGUC, for which the “self-splicing fitness (ln)” value runs as follows: (30 °C) -3.45 ± 0.24; (37 °C) -3 ± 0.3.

Take CCAGAGCAAUAUUACGCUAA: the “self-splicing fitness (ln)” value is -2.74 ± 0.24 (30 °C) and -2.57 ± 0.24 (37 °C).

As to CCAGAGCAAUAUUACGGGCG, the “self-splicing fitness (ln)” value is, setting by setting: (30 °C) -1.5 ± 0.085; (37 °C) -0.383 ± 0.1.

With CCAGAGCAAUAUUACGGGUC, the “self-splicing fitness (ln)” value (30 °C) was -3.22 ± 0.43 and the “self-splicing fitness (ln)” value (37 °C) was -1.53 ± 0.28.

As to CCAGAGCAAUAUUACGGUAC, the “self-splicing fitness (ln)” value (30 °C) is -3.29 ± 0.17 and the “self-splicing fitness (ln)” value (37 °C) was -1.52 ± 0.26.

On to CCAGAGCAAUAUUACGUAGA, for which the “self-splicing fitness (ln)” value (30 °C) was -1.88 ± 0.12 and the “self-splicing fitness (ln)” value (37 °C) was -2.08 ± 0.23.

Regarding CCAGAGCAAUAUUACGUGAU, the “self-splicing fitness (ln)” value is, setting by setting: (30 °C) -3.93 ± 0.22; (37 °C) -2.67 ± 0.28.

Consider CCAGAGCAAUAUUACGUGCC, for which the “self-splicing fitness (ln)” value (30 °C) was -3.42 ± 0.38 and the “self-splicing fitness (ln)” value (37 °C) is -2.76 ± 0.32.

For the sequence CCAGAGCAAUAUUACGUUGU, the “self-splicing fitness (ln)” value was -3.81 ± 0.2 (30 °C) and -3 ± 0.26 (37 °C).

Regarding CCAUAGCAAUAUUACGACGG, the “self-splicing fitness (ln)” value is, setting by setting: (30 °C) -3.41 ± 0.14; (37 °C) -1.67 ± 0.13.

Regarding CCAUAGCAAUAUUACGACGU, the “self-splicing fitness (ln)” value reads like this: (30 °C) -3.3 ± 0.35; (37 °C) -2.13 ± 0.23.

Regarding CCAUAGCAAUAUUACGACUU, the “self-splicing fitness (ln)” value runs as follows: (30 °C) -2.46 ± 0.17; (37 °C) -3.03 ± 0.32.

Regarding CCAUAGCAAUAUUACGAGCU, the “self-splicing fitness (ln)” value is, setting by setting: (30 °C) -3.04 ± 0.36; (37 °C) -2.9 ± 0.47.
